Columns and labels:
human MuSK [1] = molecular target: T1, human MuSK (human, UniProt O15146 24-495); assay: Biacore, MuSK on chip (200RU), Fab dilution series
T1 construct: Recombinant protein coated on ELISA plates (R&D Systems cat. 10189-MK) or on the Biacore chip; also called human muscle-specific tyrosine protein kinase; full length human MuSK
T1 sequence: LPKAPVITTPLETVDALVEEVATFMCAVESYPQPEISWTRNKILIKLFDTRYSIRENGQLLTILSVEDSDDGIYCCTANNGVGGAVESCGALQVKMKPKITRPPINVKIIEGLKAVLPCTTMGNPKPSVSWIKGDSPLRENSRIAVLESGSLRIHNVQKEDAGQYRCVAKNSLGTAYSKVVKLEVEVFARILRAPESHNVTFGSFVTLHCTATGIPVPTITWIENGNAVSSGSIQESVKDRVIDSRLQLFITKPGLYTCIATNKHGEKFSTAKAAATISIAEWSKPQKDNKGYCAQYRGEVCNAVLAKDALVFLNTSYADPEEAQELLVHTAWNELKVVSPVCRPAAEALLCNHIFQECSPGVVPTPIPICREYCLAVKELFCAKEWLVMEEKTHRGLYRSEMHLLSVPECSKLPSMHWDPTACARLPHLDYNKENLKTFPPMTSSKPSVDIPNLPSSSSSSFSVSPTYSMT
Excerpt: (§1) For affinity determination, a CMS chip was coated with either human or mouse MuSK (200RU) and a dilution series of the antibodies (mAbs and Fabs) was applied in order to be able to calculate the affinity.

mouse MuSK [2] = molecular target: T2, mouse MuSK (mouse, UniProt Q61006 22-494, limits assumed); assay: Biacore, MuSK on chip (200RU), Fab dilution series
T2 construct: Coated on ELISA plates or on the Biacore chip; also called full length mouse MuSK; mouse MuSK (in house produced in HEK293 cells)
T2 sequence (looked up): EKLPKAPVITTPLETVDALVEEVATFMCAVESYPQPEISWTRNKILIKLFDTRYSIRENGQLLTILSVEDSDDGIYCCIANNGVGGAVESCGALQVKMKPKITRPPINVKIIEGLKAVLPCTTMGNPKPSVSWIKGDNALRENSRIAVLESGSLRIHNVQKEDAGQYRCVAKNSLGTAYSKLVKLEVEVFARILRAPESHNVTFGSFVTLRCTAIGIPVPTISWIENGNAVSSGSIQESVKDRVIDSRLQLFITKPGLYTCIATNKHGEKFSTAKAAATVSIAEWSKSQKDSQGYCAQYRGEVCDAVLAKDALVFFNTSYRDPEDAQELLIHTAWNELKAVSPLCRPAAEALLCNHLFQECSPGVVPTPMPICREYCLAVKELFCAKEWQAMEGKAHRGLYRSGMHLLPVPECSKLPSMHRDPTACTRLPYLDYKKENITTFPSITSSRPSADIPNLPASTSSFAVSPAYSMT
Excerpt: as §1

mouse MuSK [3] = molecular target: T2, mouse MuSK; assay: Biacore, Fab
Excerpt: as §1

human MuSK [4] = molecular target: T1, human MuSK; assay: ELISA, plate coated with human MuSK at 0.2 µg/ml, dilution series of mAb, goat anti human Fc-HRP and TMB, OD 620 nm (8 min)
Procedure: (§2) An ELISA plate was coated with human MuSK (R&D Systems, cat. 10189-MK) or mouse MuSK (in house produced in HEK293 cells) at 0.2 μg/ml. After washing and blocking the plate, a dilution series of the anti-MuSK antibodies was applied and allowed to bind for 2 hours at room temperature. […] OD at 620 nm was measured with a 96 well ELISA plate reader.

mouse MuSK [5] = molecular target: T2, mouse MuSK; assay: ELISA, plate coated with mouse MuSK at 0.2 µg/ml, dilution series of mAb, goat anti human Fc-HRP and TMB, OD 620 nm (8 min)
Procedure: as §2

[6] = molecular target: T3, mouse MuSK, endogenous (C2C12 myotubes; neuromuscular synapses of mice) (mouse, UniProt Q61006 22-868); assay: in vivo: wildtype mice injected i.p., diaphragm stained two days later with anti-human F(ab')2 Alexa 647 and Alexa 488-alpha-BGT; ratio of signal intensities at the synapse [continued]
T3 construct: whole, on cells; also called MuSK at the synapse; synaptic MuSK
T3 sequence (looked up): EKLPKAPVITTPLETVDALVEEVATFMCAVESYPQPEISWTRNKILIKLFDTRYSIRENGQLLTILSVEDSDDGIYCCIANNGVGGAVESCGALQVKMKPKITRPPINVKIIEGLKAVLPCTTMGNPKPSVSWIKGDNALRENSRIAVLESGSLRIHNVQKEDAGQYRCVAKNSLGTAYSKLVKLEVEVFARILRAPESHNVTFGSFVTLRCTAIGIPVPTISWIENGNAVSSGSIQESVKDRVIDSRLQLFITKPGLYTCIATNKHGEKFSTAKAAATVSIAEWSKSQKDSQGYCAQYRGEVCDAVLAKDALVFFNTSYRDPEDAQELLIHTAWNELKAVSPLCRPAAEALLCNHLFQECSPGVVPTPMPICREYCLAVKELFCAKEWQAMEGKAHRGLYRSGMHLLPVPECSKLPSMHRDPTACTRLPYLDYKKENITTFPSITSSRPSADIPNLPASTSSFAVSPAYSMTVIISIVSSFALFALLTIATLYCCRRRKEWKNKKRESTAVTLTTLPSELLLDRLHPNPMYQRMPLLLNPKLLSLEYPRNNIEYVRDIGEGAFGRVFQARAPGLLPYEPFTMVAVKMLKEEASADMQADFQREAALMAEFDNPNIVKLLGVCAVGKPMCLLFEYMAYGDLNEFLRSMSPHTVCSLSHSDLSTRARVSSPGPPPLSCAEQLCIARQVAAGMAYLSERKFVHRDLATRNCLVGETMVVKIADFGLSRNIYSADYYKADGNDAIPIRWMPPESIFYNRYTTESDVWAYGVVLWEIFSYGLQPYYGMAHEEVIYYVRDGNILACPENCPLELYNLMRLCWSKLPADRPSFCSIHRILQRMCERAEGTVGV

[7] = molecular target: T4, hECD: full-length extracellular region of human MuSK (E22 to T495) with C-terminal Avi- and His6-tags (human, UniProt O15146 22-495, biotinylated in vitro using the BirA enzyme); assay: bead-binding assay, IgG format: biotinylated antigen on streptavidin beads, flow cytometry, 1:1 fit; average ± s.d., n=3
T4 construct: also called human ECD; not shown: Avi- and His6-tags
T4 sequence: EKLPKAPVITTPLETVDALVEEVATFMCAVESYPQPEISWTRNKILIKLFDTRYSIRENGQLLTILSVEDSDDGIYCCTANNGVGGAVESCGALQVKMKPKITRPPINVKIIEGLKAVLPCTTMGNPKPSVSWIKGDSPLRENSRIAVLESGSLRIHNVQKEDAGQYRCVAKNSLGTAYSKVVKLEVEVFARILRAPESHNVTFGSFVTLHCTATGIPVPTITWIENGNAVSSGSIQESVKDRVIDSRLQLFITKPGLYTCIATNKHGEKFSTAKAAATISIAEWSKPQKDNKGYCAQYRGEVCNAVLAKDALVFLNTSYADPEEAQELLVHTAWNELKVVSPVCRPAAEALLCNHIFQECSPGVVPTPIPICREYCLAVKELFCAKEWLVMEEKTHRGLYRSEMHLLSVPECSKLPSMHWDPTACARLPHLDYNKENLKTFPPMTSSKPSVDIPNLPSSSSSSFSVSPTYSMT

[8] = molecular target: T5, mECD: full-length extracellular region of mouse MuSK (E22 to T494) with C-terminal Avi- and His6-tags (mouse, UniProt Q61006 22-494, biotinylated in vitro using the BirA enzyme); assay: as above
T5 construct: range 22-494; also called mouse ECD; not shown: Avi- and His6-tags
T5 sequence (looked up): T2 sequence (looked up)

[9] = molecular target: T6, hFz: Fz domain and C-terminal flanking sequence of human MuSK (K314-T495) with C-terminal Avi- and His6-tags (human, UniProt O15146 314-495, biotinylated in vitro using the BirA enzyme); assay: as above
T6 construct: also called human Fz; not shown: Avi- and His6-tags
T6 sequence: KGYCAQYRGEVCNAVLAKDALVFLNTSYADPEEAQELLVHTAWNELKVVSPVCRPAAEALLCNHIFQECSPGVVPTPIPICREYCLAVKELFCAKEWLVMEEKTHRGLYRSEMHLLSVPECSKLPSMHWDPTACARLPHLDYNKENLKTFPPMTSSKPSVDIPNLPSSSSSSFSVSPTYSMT

[10] = molecular target: T7, mFz: Fz domain and C-terminal flanking sequence of mouse MuSK (D307 to T494) with C-terminal Avi- and … (mouse, UniProt Q61006 307-494, limits assumed, biotinylated in vitro using the BirA enzyme); assay: as above
T7 construct: also called mouse Fz; not shown: Avi- and His6-tags
T7 sequence (looked up): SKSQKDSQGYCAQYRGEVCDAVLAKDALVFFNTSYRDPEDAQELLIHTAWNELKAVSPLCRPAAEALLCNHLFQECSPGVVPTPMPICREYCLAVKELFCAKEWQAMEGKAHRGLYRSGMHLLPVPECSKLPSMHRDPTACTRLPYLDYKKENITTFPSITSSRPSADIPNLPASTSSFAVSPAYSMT

B1: 30E1 Fab (Fab, V domains shown)
VH: QVQVQESGPGLVKPSQTLSLTCTVSGGSITARYYSWSWIRQPPGKGLEWMGVIAYDGSTYYSPSLKSRTSISRDTSKNQFSLHLSSVTPDDTAVYYCARGSSRVAAAFDSWGQGTQVTVSS
VL: SYELTQSPSVSVALRRTAKITCGGDNIGSKNTQWYQQKPGQAPVLVIYADSRRPSGIPERFSGSNSGNTATLTISGAQAEDEADYYCHVWDSSTNAWFGGGTHLTVL
notes: Fab format
In the case of B1, the Kd (human MuSK [1]) is reported as 0.07 nM, the Kd (mouse MuSK [2]) is reported as 5.39 nM and the “fold difference in affinity, human versus mouse MuSK” value (mouse MuSK [3]) is reported as ≥ 1000 fold.

B2: 30A11 Fab (Fab, V domains shown)
VH: B1 VH
VL: SYELTQSPSVTVALRQTAKITCGGDNIASKNVQWYQQKPGQAPSLVIWADSRRPSGIPVRFSGSNFGNTATLTISGAQAEDEADYYCQVWDSSTNVAVFGGGTHLTVL
notes: Fab format
B2 was tested, and the Kd (human MuSK [1]) was 0.008 nM, the Kd (mouse MuSK [2]) was 2.42 nM and the “fold difference in affinity, human versus mouse MuSK” value (mouse MuSK [3]) was ≥ 1000 fold.

B3: 16F11 (antibody, V domains shown)
VH: EVQLVESGGGLVQPGGSLSLSCVASGFTFSLYYMNWVRQAPGKGLEWLSVIDTHSIAYYADSVKGRFTISRDNVKNTLYLQLNNLKPEDTALYYCVLGRTALVRWGQGTQVTVSS
VL: DIVMTQSPSSVTASVGEKVTINCKSSQSVVFGSNQKSYLNWYQQRPGQSPRLLIYYASTQESGIPDRFSGSGSTTDFTLTISSVQPEDAAVYYCQQAYSAPTFGSGTRLEIK
notes: human IgG1 with the LALA mutations (L234A, L235A); produced in HEK293 cells
With B3 the “EC50 (read off the curve)” value (human MuSK [4]) was ~0.02 µg/mL and the “EC50 (read off the curve)” value (mouse MuSK [5]) was ~0.02 µg/mL.

B4: mIgG2a-X17 (antibody, V domains shown)
VH: EVQLVESGGGLVQPGGSLRLSCAASGFTISYSSIHWVRQAPGKGLEWVASIYSSSGSTYYADSVKGRFTISADTSKNTAYLQMNSLRAEDTAVYYCARGDHGYYVFGYLGMDYWGQGTLVTVSS
VL: DIQMTQSPSSLSASVGDRVTITCRASQSVSSAVAWYQQKPGKAPKLLIYSASSLYSGVPSRFSGSRSGTDFTLTISSLQPEDFATYYCQQSYKPGALITFGQGTKVEIK
notes: chimeric antibody of a human Fab (human CH1) and mouse IgG2a Fc with the LALAPG mutations; also called X17-mIgG2a-LALAPG; antibody X17
For B4, the “EC50 (read off the curve)” value [6] was ~0.5 mg/kg, the Kd [7] was 0.97 nM and the Kd [8] was 1.1 nM. For the same binder, the Kd [9] was 0.61 nM and the Kd [10] was 0.74 nM.
